Measurements taken from publication PMC9144876 (Protein Science : A Publication of the Protein Society, 2022).

Biological target: extracellular domain of SARS‐CoV‐2 spike protein (ECD) (SARS‐CoV‐2, UniProt P0DTC2 14-1213)
Test: ELISA

B1: h‐deface2 (designed binder)
chain: EFHGPSWCLTPADRGLCRANENRFYYNSVIGKCRPFKYSGCGGNENNFTSKDKCLHECKKG
B1 showed a Kd of 0.0544 µM.
